Data reported in patent US20150125444A1 (AstraZeneca / MedImmune, published 2015).
Changes are numbered by the printed parent chain.

T1: Human FcγRIIa extracellular domain (human, UniProt P12318 34-217)
T1 construct: extracellular domain
T1 sequence (looked up): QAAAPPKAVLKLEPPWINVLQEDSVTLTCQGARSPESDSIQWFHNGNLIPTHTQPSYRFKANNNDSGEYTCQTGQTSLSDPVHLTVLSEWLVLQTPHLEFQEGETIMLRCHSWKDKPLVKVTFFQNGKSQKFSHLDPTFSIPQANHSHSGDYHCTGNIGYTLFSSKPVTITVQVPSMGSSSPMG

T2: Human FcγRIIb extracellular domain (human, UniProt P31994 43-217)
T2 construct: extracellular domain
T2 sequence (looked up): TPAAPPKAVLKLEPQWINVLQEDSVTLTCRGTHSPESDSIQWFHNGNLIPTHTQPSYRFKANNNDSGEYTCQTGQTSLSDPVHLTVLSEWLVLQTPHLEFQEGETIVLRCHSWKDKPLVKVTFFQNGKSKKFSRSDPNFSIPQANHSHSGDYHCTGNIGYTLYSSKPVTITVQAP

B1: Ab3 (anti-CD20 antibody HB20.3) with wild-type IgG1 Fc domain (antibody)
heavy: not shown
light: DIQMTQSPASLSASVGETVTITCRASGNIHNYLAWYQQKQGKSPQLLVYNAKTLADGVPSRFSGSGSGTQFSLKINSLQPEDFGSYYCQHFWSTPWTFGGGTKLEIKRTVAAPSVFIFPPSDEQLKSGTASVVCLLNNFYPREAKVQWKVDNALQSGNSQESVTEQDSKDSTYSLSSTLTLSKADYEKHKVYACEVTHQGLSSPVTKSFNRGEC
notes: Full human IgG1 kappa antibody; also called Ab3 WT; WT
B2: Ab3 (anti-CD20 antibody HB20.3) with YTE variant IgG1 Fc domain (antibody)
heavy: QVQLQQPGAELVKPGASVKMSCKASGFTFTNYNMHWLKQTPGQGLEWIGAIYPENGDTSYNQKFKGKATLTADKASSTAYMHLSSLTSEDSAVYFCARFYYYGSYYGAMDYWGQGTSVTVSSASTKGPSVFPLAPSSKSTSGGTAALGCLVKDYFPEPVTVSWNSGALTSGVHTFPAVLQSSGLYSLSSVVTVPSSSLGTQTYICNVNHKPSNTKVDKRVEPKSCDKTHTCPPCPAPELLGGPSVFLFPPKPKDTLYITREPEVTCVVVDVSHEDPEVKFNWYVDGVEVHNAKTKPREEQYNSTYRVVSVLTVLHQDWLNGKEYKCKVSNKALPAPIEKTISKAKGQPREPQVYTLPPSREEMTKNQVSLTCLVKGFYPSDIAVEWESNGQPENNYKTTPPVLDSDGSFFLYSKLTVDKSRWQQGNVFSCSVMHEALHNHYTQKSLSLSPGK
light: B1 light
notes: Full IgG1; also called Ab3 YTE
B3: Ab4 (anti-C5a antibody 1B8) with wild-type IgG1 Fc domain (antibody)
heavy: not shown
light: QSALTQPPSASGTPGQRVTISCSGTNSNIGSNYVFWYQQLPGTAPKLLIFESNRRPSGVPDRFSGSKSDTSASLAISGLRSEDEADYYCATWDDTLIAPVFGSGTKVTVLGQPKANPTVTLFPPSSEELQANKATLVCLISDFYPGAVTVAWKADSSPVKAGVETTTPSKQSNNKYAASSYLSLTPEQWKSHRSYSCQVTHEGSTVEKTVAPAEC
notes: Full human IgG1 lambda antibody; also called Ab4 WT; WT
B4: Ab4 (anti-C5a antibody 1B8) with FES-YTE variant IgG1 Fc domain (antibody)
heavy: EVQLLESGGGLVQPGGSLRLSCAASGFTFSSYVMNWVRQAPGKGLEWVSSISPSGGRTWYADSVKGRFTISRDNSKNTLYLQMNSLRAEDTAVYYCARSDGSAAGFLGYWGQGTLVTVSSASTKGPSVFPLAPSSKSTSGGTAALGCLVKDYFPEPVTVSWNSGALTSGVHTFPAVLQSSGLYSLSSVVTVPSSSLGTQTYICNVNHKPSNTKVDKRVEPKSCDKTHTCPPCPAPEFEGGPSVFLFPPKPKDTLYITREPEVTCVVVDVSHEDPEVKFNWYVDGVEVHNAKTKPREEQYNSTYRVVSVLTVLHQDWLNGKEYKCKVSNKALPASIEKTISKAKGQPREPQVYTLPPSREEMTKNQVSLTCLVKGFYPSDIAVEWESNGQPENNYKTTPPVLDSDGSFFLYSKLTVDKSRWQQGNVFSCSVMHEALHNHYTQKSLSLSPGK
light: B3 light
notes: Full IgG1; also called Ab4 FES-YTE
B5: Ab4 (anti-C5a antibody 1B8) with FQG-YTE variant IgG1 Fc domain (antibody)
heavy: B4 heavy with E238Q, S334G
light: B3 light
notes: Full IgG1; also called Ab4 FQG-YTE
B6: Ab4 (anti-C5a antibody 1B8) with FQQ-YTE variant IgG1 Fc domain (antibody)
heavy: B4 heavy with E238Q, K325Q, S334P
light: B3 light
notes: Full IgG1; also called Ab4 FQQ-YTE
B7: Ab4 (anti-C5a antibody 1B8) with YTE variant IgG1 Fc domain (antibody)
heavy: B4 heavy with F237L, E238L, S334P
light: B3 light
notes: Full IgG1; also called Ab4 YTE

Assays:
[1] = molecular target: T3, Human FcγRIIIa (158F) extracellular domain (human, UniProt P08637 17-208); experiment: SPR (ProteOn XPR36), antibody immobilised, steady state, pH 7.4
T3 construct: extracellular domain; also called FcγRIII(158F)
Protocol: (§1) Experiments were performed using the ProteOn XPR36 surface plasmon resonance system (Bio Rad). Phosphate buffered saline with 0.005% Tween 20 (PBS/Tween), pH 7.4 was used as running buffer for most experiments with the exception of Human FcRn (extracellular domain) binding in which Phosphate buffered saline with 0.005% Tween 20 (PBS/Tween), pH 6.0 was used. All experiments were performed at 25° C. Antibodies were immobilized on a ProteOn™ GLC Sensor Chip (#176-5011) using EDAC (1-Ethyl-3-[3-dimethylaminopropyl]carbodiimide) and sulfo-NHS (N-hydroxysulfosuccinimide) to an R.U. (response unit) level of 4000-6000. C1q, FcγRI, FcγRIIa, FcγRIIb, FcγRIII(158V), FcγRIII(158F), and FcRn were then flowed over the IgG immobilized surface at various concentrations at a rate of 25 μl/minute for a long enough period of time to achieve steady state, or near steady state. Binding (if any could be determined) was quantified via steady state equilibrium binding analysis using the ProteOn software. Human FcγRI, FcγRIIa, FcγRIIb, FcγRIII(158V), FcγRIII(158F), and FcRn extracellular domains were generated via mammalian expression vectors in house. Human C1q was obtained from Quidel (CA).

[2] = molecular target: T1, Human FcγRIIa extracellular domain; experiment: as above
Protocol: as §1

[3] = molecular target: T4, Human C1q (human, UniProt P02745 23-245; P02746 28-253; P02747 29-245); experiment: as above
T4 construct: Bought complement protein; In the CDC assay C1q came with human serum
Protocol: as §1

[4] = molecular target: T5, Human FcγRIIIa (158V) extracellular domain (human, UniProt P08637 17-208); experiment: as above
T5 construct: extracellular domain; Position 158 is the usual allotype numbering (mature protein), not the precursor numbering of the database entry; also called FcγRIII(158V)
Protocol: as §1

[5] = molecular target: T6, Human FcγRIa extracellular domain (human, UniProt P12314 16-292); experiment: as above
T6 construct: extracellular domain
Protocol: as §1

[6] = molecular target: T2, Human FcγRIIb extracellular domain; experiment: as above
Protocol: as §1

[7] = molecular target: Human FcRn (extracellular domain) (human, UniProt P55899 24-297); experiment: SPR (ProteOn XPR36), antibody immobilised, steady state, pH 6.0
Protocol: as §1

Sequence of Human FcRn (extracellular domain) (P55899 24-297): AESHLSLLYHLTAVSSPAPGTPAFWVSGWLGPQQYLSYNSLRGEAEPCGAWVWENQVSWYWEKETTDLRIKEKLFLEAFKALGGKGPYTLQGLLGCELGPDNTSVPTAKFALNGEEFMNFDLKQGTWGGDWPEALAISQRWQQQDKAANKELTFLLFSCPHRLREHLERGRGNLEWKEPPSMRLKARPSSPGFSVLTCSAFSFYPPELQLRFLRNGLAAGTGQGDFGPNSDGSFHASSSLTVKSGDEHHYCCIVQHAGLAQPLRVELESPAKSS
T5 sequence (P08637 17-208 F176V): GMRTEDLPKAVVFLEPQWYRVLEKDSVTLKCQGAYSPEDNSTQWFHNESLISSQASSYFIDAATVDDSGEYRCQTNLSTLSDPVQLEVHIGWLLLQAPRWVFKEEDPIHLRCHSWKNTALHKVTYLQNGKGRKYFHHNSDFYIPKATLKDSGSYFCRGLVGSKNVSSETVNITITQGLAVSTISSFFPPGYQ
T6 sequence (P12314 16-292): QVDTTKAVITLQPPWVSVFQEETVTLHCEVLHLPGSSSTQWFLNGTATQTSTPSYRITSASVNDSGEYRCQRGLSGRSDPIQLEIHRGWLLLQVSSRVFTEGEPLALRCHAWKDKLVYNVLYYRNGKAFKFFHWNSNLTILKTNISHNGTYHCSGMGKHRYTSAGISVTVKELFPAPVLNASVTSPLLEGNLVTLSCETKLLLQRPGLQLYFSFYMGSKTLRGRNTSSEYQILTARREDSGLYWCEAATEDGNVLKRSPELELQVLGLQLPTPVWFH
T4 sequence (P02745 23-245 limits assumed, chain 1 of 3): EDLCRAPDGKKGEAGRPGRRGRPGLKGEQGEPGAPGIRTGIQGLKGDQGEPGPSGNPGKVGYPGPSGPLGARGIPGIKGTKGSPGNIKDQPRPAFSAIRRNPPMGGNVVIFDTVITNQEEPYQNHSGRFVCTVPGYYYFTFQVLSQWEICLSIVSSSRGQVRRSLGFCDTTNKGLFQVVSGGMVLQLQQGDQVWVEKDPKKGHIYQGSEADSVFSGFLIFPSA
T4 sequence (P02746 28-253 limits assumed, chain 2 of 3): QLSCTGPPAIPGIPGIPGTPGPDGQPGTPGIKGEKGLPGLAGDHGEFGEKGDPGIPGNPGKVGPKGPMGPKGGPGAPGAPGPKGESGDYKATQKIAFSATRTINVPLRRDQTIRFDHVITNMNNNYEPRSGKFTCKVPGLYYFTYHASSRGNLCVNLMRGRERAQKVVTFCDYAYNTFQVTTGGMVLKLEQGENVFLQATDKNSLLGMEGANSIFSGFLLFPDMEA
T4 sequence (P02747 29-245 limits assumed, chain 3 of 3): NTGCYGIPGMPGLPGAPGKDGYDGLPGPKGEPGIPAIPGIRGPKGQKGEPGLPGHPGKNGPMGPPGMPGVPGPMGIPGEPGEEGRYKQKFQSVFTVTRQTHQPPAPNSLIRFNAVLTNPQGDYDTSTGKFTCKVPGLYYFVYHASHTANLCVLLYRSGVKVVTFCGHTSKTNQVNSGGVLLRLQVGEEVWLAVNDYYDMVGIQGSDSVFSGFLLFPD
T3 sequence (P08637 17-208): as the sequence (P08637 17-208 F176V) above, with V160F counted along it

Row | Binder | Kd [1] [nM] | Kd [2] [nM] | Kd [3] [nM] | Kd [4] [nM] | Kd [5] [nM] | Kd [6] [nM] | Kd [7] [nM] | binding result [1] | binding result [2] | binding result [3] | binding result [4] | binding result [5] | binding result [6]
1 | B1 | 4700 | 1200 | 103 | 900 | 78 | 6000 | 670 |  |  |  |  |  | 
2 | B2 | 6100 | 2800 | 70 | 800 | 140 | 1600 | 235 |  |  |  |  |  | 
3 | B3 | 1600 | 1000 | 250 | 380 | 31 | 2500 | 1070 |  |  |  |  |  | 
4 | B4 |  |  |  |  |  |  | 270 |  |  |  |  |  | 
5 | B5 |  |  |  |  |  |  | 350 | no binding | no binding | no binding | no binding | no binding | no binding
6 | B6 |  |  |  |  |  |  | 290 | no binding | no binding | no binding | no binding | no binding | no binding
7 | B7 | 2800 | 1900 | 400 | 820 | 43 | 3600 | 270 |  |  |  |  |  | 
